Tests used:
[1] = molecular target: T1, human AXL (full length, on cells) (human (Homo sapiens), UniProt P30530 26-894); experiment: flow cytometry, HEK293T cells transiently transfected with full-length human AXL, 4-fold dilutions, PE-anti-human IgG F(ab')2
T1 construct: Used for transfected HEK293 cells and for AXL-positive A431 cells (endogenous AXL); also called hsAXL; Homo sapiens AXL
T1 sequence: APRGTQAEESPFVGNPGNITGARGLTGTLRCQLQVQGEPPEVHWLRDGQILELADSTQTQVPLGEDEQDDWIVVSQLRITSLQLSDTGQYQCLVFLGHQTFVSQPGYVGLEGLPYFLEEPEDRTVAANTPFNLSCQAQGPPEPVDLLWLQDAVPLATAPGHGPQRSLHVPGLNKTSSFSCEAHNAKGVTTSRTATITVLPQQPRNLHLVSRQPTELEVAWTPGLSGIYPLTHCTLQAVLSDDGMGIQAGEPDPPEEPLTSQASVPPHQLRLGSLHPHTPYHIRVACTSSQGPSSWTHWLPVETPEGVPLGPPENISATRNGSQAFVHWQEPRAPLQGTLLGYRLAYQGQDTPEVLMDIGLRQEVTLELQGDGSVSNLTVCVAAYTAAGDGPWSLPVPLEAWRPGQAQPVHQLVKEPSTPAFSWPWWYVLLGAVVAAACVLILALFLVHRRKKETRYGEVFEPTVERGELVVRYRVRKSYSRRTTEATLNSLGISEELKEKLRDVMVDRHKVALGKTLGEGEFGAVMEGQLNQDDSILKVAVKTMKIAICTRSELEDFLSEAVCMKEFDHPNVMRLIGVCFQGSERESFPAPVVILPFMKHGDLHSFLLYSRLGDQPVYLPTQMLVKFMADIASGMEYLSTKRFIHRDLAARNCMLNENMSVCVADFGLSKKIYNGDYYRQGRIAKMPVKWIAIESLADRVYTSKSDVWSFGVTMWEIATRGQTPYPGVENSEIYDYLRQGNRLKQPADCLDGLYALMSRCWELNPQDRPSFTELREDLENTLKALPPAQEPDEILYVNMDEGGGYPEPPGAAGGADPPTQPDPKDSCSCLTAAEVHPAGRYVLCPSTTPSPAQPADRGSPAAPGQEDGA
Experimental: Binding curves were analyzed using non-linear regression (sigmoidal dose-response with variable slope) using GraphPad Prism V5.04 software (GraphPad Software, San Diego, Calif., USA).

[2] = molecular target: T1, human AXL (full length, on cells); experiment: flow cytometry, HEK-293F cells transfected with full length human AXL, 4-fold dilutions of antibody, PE-anti-human IgG F(ab')2

Binder	EC50 (read off the curve) [1]	EC50 (read off the curve) [2]
IgG1-AXL-183-A-vcDuo3 (other, The sheet writes '-A-vcDuo3', the text '-vcDuo3'; also called IgG1-AXL-183-vcDuo3; IgG1-AXL-183-vcDuostatin3) heavy chain: QVQLQQWGAGLLKPSETLSLTCAVYGGSFSGYYWSWIRQPPGKGLEWIGEINQSGSTNYNPSLKSRVTISVDTSKNQFSLKLSSVTAADTSVYYCASGNWDHFFDYWGQGTLVTVSS light chain: DIQMTQSPSSVSASVGDRVTITCRASQGISSWLAWYQHKPGKAPKLLIYATSSLQSGVTSRFSGSGSGTDFTLTISSLQPEDFATYYCQQAKSFPWTFGQGTKVEIK	~0.2 µg/mL	
IgG1-AXL-171 (antibody, V domains shown, Expressed as IgG1,kappa) VH: EVQLLESGGGLVQPGGSLRLSCAASGFTFSSYAMSWVRQAPGKGLEWVSDISVSGGSTYYADSVKGRFTISRDNSKNTLYLQMNSLRAEDTAVYYCAKEGYIWFGESLSYAFDIWGQGTMVTVSS VL: not shown		~0.2 µg/mL
IgG1-AXL-107 (antibody, V domains shown, Expressed as IgG1,kappa) VH: EVQLLESGGGLVQPGGSLRLSCAASGFTFSSYAMNWVRQAPGKGLEWVSTTSGSGASTYYADSVKGRFTISRDNSKNTLYLQMNSLRAEDTAVYYCAKIWIAFDIWGQGTMVTVSS VL: not shown		~0.2 µg/mL
